Data as given in patent publication US20190134153A1, “IMMUNOMODULATORY EFFECT OF INHALED KINASE INHIBITOR PEPTIDES IN LUNG” (MOERAE MATRIX, INC., priority 2017, published 2019).

Tests used:
Assay in all cases: Kinase Profiling Assay
Type in all cases: biochemical
Settings in all cases: 100 μM
EphB1(h) = target: T1, EphB1(h) (Homo sapiens, UniProt P54762)
T1 sequence (P54762 18-984): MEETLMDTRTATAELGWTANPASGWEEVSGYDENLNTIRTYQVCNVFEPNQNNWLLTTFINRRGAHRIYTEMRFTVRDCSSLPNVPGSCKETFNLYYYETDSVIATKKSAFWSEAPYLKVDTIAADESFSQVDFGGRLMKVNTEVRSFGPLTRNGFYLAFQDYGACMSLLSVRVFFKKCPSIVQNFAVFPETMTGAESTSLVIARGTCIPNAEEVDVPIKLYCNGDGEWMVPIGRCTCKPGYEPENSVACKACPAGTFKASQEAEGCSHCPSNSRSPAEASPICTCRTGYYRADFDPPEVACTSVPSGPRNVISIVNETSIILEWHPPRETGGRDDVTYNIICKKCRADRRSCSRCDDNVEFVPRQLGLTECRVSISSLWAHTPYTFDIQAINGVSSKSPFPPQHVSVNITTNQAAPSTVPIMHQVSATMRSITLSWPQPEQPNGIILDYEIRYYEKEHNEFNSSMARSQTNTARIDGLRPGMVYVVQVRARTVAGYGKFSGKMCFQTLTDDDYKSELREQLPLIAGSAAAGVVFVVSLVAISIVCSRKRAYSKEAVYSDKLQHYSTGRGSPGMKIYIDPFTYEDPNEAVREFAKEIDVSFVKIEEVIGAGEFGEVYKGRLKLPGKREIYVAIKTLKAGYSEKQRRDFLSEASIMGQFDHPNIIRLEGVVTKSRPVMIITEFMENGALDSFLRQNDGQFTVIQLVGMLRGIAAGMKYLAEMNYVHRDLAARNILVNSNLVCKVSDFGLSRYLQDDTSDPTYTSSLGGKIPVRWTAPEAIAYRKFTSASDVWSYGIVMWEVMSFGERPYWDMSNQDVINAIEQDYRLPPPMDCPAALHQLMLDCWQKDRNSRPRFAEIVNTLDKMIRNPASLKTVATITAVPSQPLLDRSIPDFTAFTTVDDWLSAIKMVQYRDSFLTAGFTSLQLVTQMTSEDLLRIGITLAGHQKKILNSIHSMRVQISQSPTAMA

SAPK2a(h) = SAPK2a(h) (Homo sapiens, UniProt Q16539)
Sequence of SAPK2a(h) (Q16539 whole entry): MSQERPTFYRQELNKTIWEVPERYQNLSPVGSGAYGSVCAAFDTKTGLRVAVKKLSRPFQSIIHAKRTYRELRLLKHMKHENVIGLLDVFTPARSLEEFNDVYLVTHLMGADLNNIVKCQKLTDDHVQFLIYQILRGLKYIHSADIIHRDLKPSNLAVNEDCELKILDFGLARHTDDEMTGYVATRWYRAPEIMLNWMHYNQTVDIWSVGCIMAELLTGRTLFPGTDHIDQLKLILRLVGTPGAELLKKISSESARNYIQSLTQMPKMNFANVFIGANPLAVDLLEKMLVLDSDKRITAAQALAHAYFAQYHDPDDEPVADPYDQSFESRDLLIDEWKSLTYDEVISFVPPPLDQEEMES

PKBβ(h) = PKBβ(h) (Homo sapiens, UniProt P31751)
Sequence of PKBβ(h) (P31751 whole entry): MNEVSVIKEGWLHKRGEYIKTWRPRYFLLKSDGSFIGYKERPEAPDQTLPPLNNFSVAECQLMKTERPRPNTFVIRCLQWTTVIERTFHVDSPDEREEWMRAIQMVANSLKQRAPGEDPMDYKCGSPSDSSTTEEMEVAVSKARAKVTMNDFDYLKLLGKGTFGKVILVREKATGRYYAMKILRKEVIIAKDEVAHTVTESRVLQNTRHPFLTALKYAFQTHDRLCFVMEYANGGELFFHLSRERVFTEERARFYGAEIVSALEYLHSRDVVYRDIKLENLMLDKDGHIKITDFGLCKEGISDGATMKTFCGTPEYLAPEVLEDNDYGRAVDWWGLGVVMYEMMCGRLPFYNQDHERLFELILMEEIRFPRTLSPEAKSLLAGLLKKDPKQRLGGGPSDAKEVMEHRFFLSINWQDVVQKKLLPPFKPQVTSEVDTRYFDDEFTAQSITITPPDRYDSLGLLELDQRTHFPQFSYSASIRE

MEK1(h) = MEK1(h) (Homo sapiens, UniProt Q02750)
MKK6(h) = target: T2, MKK6(h) (Homo sapiens, UniProt P52564)
T2 sequence (P52564 1-334): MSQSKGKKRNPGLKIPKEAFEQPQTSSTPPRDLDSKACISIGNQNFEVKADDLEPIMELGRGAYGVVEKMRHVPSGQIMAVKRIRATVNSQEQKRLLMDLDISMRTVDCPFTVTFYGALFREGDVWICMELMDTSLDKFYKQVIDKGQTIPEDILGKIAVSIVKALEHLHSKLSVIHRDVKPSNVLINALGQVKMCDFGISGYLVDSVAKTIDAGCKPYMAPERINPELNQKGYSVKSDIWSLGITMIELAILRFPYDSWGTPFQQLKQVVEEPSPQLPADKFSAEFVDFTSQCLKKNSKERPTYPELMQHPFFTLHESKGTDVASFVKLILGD

AMPKα1(h) = AMPKα1(h) (Homo sapiens, UniProt Q13131)
ROCK-I(h) = ROCK-I(h) (Homo sapiens, UniProt Q13464)
Sequence of ROCK-I(h) (Q13464 whole entry): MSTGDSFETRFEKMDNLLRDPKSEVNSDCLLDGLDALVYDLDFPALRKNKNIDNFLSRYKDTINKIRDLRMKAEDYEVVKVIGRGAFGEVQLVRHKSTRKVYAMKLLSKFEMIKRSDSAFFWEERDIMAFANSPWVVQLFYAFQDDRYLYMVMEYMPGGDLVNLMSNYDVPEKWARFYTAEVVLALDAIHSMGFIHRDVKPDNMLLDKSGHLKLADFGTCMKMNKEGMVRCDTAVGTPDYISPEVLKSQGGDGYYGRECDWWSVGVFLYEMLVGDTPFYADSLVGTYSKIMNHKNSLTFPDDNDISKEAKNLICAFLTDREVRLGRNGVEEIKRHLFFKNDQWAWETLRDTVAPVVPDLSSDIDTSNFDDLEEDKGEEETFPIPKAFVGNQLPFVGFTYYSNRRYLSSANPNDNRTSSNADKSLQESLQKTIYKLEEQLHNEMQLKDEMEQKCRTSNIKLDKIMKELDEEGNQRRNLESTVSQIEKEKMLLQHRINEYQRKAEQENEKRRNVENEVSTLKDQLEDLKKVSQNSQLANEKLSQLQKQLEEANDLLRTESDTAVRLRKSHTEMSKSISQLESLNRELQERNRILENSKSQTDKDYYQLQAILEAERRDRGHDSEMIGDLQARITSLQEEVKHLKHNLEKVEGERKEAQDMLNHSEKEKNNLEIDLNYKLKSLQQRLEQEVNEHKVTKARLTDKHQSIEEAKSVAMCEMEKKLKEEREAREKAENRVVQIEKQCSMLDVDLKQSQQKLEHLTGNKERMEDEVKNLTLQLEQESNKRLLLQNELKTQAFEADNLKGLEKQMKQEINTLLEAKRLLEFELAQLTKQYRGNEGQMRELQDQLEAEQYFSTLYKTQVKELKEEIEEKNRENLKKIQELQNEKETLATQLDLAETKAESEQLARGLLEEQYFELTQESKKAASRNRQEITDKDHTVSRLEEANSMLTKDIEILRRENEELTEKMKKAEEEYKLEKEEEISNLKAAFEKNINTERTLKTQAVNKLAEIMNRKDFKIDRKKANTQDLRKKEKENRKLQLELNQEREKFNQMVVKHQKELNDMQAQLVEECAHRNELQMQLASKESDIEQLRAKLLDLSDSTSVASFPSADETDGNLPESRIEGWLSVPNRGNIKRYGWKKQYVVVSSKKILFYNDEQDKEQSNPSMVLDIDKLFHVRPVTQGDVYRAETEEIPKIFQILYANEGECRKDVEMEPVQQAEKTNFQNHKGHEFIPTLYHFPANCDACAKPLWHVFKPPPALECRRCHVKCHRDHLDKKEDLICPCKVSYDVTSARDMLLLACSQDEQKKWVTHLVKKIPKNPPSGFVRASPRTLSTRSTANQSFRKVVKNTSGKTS

NLK(h) = target: T3, NLK(h) (Homo sapiens, UniProt Q9UBE8)
T3 sequence (Q9UBE8 1-527): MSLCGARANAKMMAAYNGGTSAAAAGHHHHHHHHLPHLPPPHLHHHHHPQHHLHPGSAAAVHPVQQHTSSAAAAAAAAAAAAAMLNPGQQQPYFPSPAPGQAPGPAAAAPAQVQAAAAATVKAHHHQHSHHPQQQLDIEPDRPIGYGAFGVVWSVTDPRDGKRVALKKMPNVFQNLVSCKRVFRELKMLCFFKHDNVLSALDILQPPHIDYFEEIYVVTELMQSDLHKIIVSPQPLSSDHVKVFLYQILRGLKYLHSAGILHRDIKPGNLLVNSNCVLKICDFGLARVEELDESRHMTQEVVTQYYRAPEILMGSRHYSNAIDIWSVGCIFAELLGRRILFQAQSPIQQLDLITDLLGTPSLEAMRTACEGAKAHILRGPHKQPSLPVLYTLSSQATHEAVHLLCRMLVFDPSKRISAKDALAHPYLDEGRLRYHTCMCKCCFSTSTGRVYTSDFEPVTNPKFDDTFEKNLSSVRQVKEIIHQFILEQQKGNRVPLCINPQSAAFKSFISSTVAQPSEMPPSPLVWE

Arg(h) = Arg(h) (Homo sapiens, UniProt P42684)
JAK2(h) = JAK2(h) (Homo sapiens, UniProt O60674)
Sequence of JAK2(h) (O60674 whole entry): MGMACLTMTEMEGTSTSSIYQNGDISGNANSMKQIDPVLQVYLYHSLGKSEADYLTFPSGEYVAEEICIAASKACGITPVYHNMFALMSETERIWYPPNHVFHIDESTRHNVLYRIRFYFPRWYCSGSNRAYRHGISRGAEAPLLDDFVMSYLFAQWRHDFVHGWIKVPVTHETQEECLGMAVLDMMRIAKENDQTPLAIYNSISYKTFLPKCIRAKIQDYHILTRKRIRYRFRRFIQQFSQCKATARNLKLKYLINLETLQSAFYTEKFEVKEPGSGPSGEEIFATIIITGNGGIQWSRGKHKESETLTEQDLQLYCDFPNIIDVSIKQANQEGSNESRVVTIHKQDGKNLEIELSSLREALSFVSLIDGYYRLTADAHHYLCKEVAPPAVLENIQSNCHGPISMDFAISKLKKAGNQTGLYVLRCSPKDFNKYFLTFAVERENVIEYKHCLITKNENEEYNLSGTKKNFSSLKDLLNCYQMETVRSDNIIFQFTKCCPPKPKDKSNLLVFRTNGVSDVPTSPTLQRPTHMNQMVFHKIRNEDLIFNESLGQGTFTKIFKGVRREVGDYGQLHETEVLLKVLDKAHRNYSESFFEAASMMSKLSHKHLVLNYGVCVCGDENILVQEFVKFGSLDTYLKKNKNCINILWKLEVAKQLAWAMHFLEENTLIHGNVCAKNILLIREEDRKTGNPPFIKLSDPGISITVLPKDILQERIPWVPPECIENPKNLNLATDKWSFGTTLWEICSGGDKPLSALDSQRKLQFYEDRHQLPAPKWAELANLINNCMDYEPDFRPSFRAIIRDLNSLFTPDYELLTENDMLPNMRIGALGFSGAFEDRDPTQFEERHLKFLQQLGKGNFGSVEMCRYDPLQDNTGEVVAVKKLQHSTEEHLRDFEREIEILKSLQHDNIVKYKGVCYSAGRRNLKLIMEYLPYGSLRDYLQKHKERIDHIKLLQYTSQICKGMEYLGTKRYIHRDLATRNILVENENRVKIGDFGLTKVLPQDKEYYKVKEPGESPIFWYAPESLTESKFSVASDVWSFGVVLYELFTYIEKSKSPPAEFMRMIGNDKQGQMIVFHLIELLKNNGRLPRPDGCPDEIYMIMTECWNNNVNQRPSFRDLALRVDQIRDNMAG

DAPK2(h) = DAPK2(h) (Homo sapiens, UniProt Q9UIK4)
PKCγ(h) = PKCγ(h) (Homo sapiens, UniProt P05129)
CDK9/cyclin T1(h) = CDK9/cyclin T1(h) (Homo sapiens, UniProt P50750)
Rsk2(h) = Rsk2(h) (Homo sapiens, UniProt P51812)
Sequence of Rsk2(h) (P51812 whole entry): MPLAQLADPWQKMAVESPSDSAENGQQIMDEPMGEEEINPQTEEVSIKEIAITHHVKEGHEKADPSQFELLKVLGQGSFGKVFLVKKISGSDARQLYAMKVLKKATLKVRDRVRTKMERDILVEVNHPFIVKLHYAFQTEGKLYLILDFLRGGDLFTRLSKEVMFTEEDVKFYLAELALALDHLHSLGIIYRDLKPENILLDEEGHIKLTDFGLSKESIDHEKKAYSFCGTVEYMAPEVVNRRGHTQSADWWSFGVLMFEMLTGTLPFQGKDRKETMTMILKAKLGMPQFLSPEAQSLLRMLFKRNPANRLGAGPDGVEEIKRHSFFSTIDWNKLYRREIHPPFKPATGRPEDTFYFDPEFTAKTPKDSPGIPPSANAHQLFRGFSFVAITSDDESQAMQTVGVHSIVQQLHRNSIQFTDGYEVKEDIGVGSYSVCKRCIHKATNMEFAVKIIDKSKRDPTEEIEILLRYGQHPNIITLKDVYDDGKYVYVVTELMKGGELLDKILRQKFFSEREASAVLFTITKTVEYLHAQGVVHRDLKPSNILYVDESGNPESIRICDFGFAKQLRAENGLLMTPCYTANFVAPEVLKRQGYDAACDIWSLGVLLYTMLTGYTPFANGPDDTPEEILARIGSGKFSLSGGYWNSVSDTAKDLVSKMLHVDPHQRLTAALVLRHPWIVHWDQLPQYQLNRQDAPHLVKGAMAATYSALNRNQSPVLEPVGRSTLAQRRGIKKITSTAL

Met(Y1248H)(h) = Met(Y1248H)(h) (Homo sapiens, UniProt P08581, Y1230H)
PKCη(h) = PKCη(h) (Homo sapiens, UniProt P24723)

FAKLAARLYRKALARQLGVAA [MMI-0300]
% activity (EphB1(h)): 44%
% activity (SAPK2a(h)): 90%
% activity (PKBβ(h)): 84%
% activity (MEK1(h)): 77%
% activity (MKK6(h)): 48%
% activity (AMPKα1(h)): 71%
% activity (ROCK-I(h)): 79%
% activity (NLK(h)): 87%
% activity (Arg(h)): 72%
% activity (JAK2(h)): 133%
% activity (DAPK2(h)): 32%
% activity (PKCγ(h)): 89%
% activity (CDK9/cyclin T1(h)): 91%
% activity (Rsk2(h)): 51%

HRRIKAWLKKIKALARQLGVAA [MMI-0500]
% activity (EphB1(h)): 37%
% activity (SAPK2a(h)): 52%
% activity (Met(Y1248H)(h)): 126%
% activity (PKBβ(h)): 21%
% activity (MEK1(h)): 21%
% activity (MKK6(h)): 18%
% activity (AMPKα1(h)): 35%
% activity (PKCη(h)): 45%
% activity (ROCK-I(h)): 17%
% activity (NLK(h)): 19%
% activity (Arg(h)): 22%
% activity (JAK2(h)): 49%
% activity (DAPK2(h)): 3%
% activity (PKCγ(h)): 6%
% activity (CDK9/cyclin T1(h)): 6%
% activity (Rsk2(h)): 14%

KAFAKLAARLYRKALARQLGVAA [MMI-0400]
% activity (EphB1(h)): 58%
% activity (SAPK2a(h)): 85%
% activity (Met(Y1248H)(h)): 63%
% activity (PKBβ(h)): 98%
% activity (MEK1(h)): 77%
% activity (MKK6(h)): 44%
% activity (AMPKα1(h)): 87%
% activity (PKCη(h)): 98%
% activity (ROCK-I(h)): 73%
% activity (NLK(h)): 90%
% activity (Arg(h)): 84%
% activity (DAPK2(h)): 16%
% activity (PKCγ(h)): 79%
% activity (CDK9/cyclin T1(h)): 235%
% activity (Rsk2(h)): 38%

YARAAARQARAKALNRQLGVA [MMI-0200]
% activity (EphB1(h)): 95%
% activity (Met(Y1248H)(h)): 153%
% activity (PKBβ(h)): 250%
% activity (MKK6(h)): 98%
% activity (AMPKα1(h)): 108%
% activity (PKCη(h)): 101%
% activity (Arg(h)): 82%
% activity (JAK2(h)): 131%
% activity (DAPK2(h)): 92%
% activity (PKCγ(h)): 101%
% activity (Rsk2(h)): 101%
